Test results published in article PMC10194908 (PLOS ONE, 2023).

What was measured:
[1] = target: NS1 secreted from Vero cells infected with DENV-2-TSV01 (Dengue virus type 2, strain TSV01 …, UniProt Q91H74, strain); assay: ELISA; conditions: one partner purified
[2] = target: NS1 secreted from Vero cells infected with DENV-2-D2Y98P (Dengue virus type 2, strain D2Y98P …, UniProt F8TRW4, strain); assay: ELISA; conditions: one partner purified
[3] = target: NS1 secreted from Vero cells infected with DENV-3-VN32/96 (Dengue virus 3, strain VN32/96 (paper: …, strain)); assay: ELISA; conditions: one partner purified
[4] = target: NS1 secreted from Vero cells infected with DENV-3-CHD94-089 (Dengue virus 3, strain CHD94-089 …, strain); assay: ELISA; conditions: one partner purified
[5] = target: NS1 secreted from Vero cells infected with DENV-4-2641Y08 (Dengue virus type 4, strain 2641Y08 …, UniProt F8TEL4, strain); assay: ELISA; conditions: one partner purified
[6] = target: NS1 secreted from Vero cells infected with DENV-4-TVP360 (Dengue virus type 4, strain TVP360 …, UniProt D2KQW6, strain); assay: ELISA; conditions: one partner purified
[7] = target: T1, Recombinant NS1 from DENV-3-Sri Lanka D3/H/IMTSSA-SRI/2000/1266 (dengue virus serotype 3 (Sri Lanka …, UniProt Q6YMS4)); assay: ELISA; conditions: both partners purified
T1 construct: also called DENV-3 NS1

[8] = target: T2, Recombinant NS1 from DENV-4-Dominica/814669/1981 (dengue virus serotype 4 …, UniProt P09866); assay: immunoblot; conditions: both partners purified
T2 construct: also called DENV-4 NS1
Target sequence in this assay (P09866 775-1126): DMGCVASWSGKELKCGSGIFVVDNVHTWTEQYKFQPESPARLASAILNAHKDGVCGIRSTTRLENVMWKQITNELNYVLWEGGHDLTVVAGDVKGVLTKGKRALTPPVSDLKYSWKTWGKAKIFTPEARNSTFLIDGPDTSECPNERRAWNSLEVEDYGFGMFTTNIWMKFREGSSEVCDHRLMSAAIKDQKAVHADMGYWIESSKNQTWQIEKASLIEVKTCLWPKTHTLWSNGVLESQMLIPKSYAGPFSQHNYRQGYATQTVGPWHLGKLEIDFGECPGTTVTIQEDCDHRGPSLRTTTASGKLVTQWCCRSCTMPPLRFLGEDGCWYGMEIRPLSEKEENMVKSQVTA

[9] = target: T2, Recombinant NS1 from …; assay: BLI; conditions: both partners purified
[10] = target: T1, Recombinant NS1 from DENV-3-Sri Lanka …; assay: immunoblot; conditions: both partners purified

Measured: binding result

T1 sequence (Q6YMS4 774-1125): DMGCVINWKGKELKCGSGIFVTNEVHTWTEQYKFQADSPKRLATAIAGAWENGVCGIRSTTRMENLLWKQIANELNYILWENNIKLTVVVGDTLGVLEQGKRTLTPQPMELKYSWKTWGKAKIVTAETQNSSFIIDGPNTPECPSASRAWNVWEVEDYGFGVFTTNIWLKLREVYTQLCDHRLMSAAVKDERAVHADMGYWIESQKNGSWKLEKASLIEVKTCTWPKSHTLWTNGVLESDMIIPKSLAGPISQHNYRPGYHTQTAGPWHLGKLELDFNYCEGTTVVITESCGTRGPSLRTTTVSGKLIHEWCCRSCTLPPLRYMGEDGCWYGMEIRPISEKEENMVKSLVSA

B1: D8 (antibody, V domains shown)
VH: QVQLQESGPGLVKPSETLPLTCTVSGGSISNNGFYWGWIRQPPGKGLEWIGNIYYRGSTYYNPSLNSRVTISVDTSKNQFSLQLNSVTAADTAVYYCARLGIQLWFAIDYWGQGTLVTVSS
VL: SVLTQPPAVSVALGQTVRITCQGDSLRSSYASWYQQKPGQAPVLIFYAKNNRPSGIPDRFSGSSSGNTASLTITGAQAEDEADYYCYSRDSSGNLWVFGGGTKLTVL
notes: also called D8-HRP; HRP-D8
not listed: [8] | [9] | [10]
binds: all other assays above

B2: D6 (antibody, V domains shown)
VH: EVQLVQSGGGLVQPGRSLRLSCAASGFTFQDYAMHWVRQAPGKGLEWVSGIGRDSGTIDYADSVKGRFTISRDNAKNSLYLQMNSLRAEDTALYYCAKISNGYRPDNWGQGTLVTVSS
VL: VLTQPPSVSVSPGQTARITCSGDVLAKRYARWFQQKPGQAPVVVIYKDSERPSGIPERLSGSSSGTTVTLTISGAQVEDEADYYCYCAADNNVVFGGGTKLTVL
notes: also called D6-HRP; HRP-D6
binds: [8]

B3: A2 (antibody, V domains shown)
VH: QVQLQESGGGVVQPGRSLRLFCAASGFTFSAFSTYAIHWVRQAPGKGLEWVAVISYDANNKYYADSVKGRFTISRDNFKSTLFLQMNSLRAEDTAVYYCARDRSDSGYDSYYYYYGMDVWGQGTTVTVSS
VL: QSVVTQPPSVSAAPGQKVTISCSGSSSNIGRNYVSWYQHLPGTAPKLLIYDNNKRRSGIPDRFSGSKSDTTATLGITGLQTVDEADYYCGSWDNSLSAYVFGTGTKVTV
notes: also called A2-HRP
binds: [9] | [10]
